# According to the domain aggregation screens of Martell et al. (2025):
# Test: soluble fraction after stress (log2 fold change); higher = more stays soluble; pooled small domains, quantitative proteomics
# Settings: stress: 75 degC
# 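Also: 20 min heating vs room temperature control held 20 min.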
row,Sequence,soluble fraction (log2)
1,HMNLLGDNIRKLRLEKGLGLNEVARLANITGGYLSSIENNKRTNVGTEILESIAKAIGVSVSDFYL,-0.347
2,HMNLLGERIREIRMEMGLTAKELAQRASVTPGYISQIEHDQIKPSMNVMMRIAEVLNVPMAALLM,-2.38
3,HMNLLPAGTYKLKDLVTAEDEEIGAKKGDVVIAHEDTPPSDRVLGVDIFPVIHKNTSKKIYVSLEDI,0.322
4,HMNLMQIHVARPPNQLGVFSQEEVAAGLQSGRFLPTDQAWRDGMSAWTPLSQWAEFSSVVAAV,-0.217
5,HMNLNLDITTYKLEELENLLKLKPNYKQEQIFEAKTKMEKFILKSNLNESKREELYIFLDNIYNKLTNNLL,-2.94
6,HMNLPISDREKELLTLLSKGLLYKEIASKLDITIGTVKQHIHNIYHKLHVSNKTEALNLFNK,-1
7,HMNLRLKEVLDEKNMSLVTLSEKTGIEKGNLSAISNNKKNPTVETLSKIAKALQISLAELFESPP,0.416
8,HMNLSDIETWLRELSLEKYALAFSEAEIDFETLPELTEDDLKEVGLPVGPRRKVWGAIQLLRTTD,-1.48
9,HMNLSNVVIRKVQEMILSGELQEGDKLPPEREMTQRLGIGRPALREGLKSLEMLGLVERRHGLGNFIINKV,-1.05
10,HMNLSPADFSSVRNALGLSLSTVAKESGINRNYLSNFEKKKHFLEETAKVKLRDYYMSIDPDAFAAAL,-0.408
11,HMNLVGGKINSLMTTKNVTIQDLSERSGLTVSQIELLLSGDKVPSLAVLIKIARGLGVRVGTFL,-1.12
12,HMNLVRQHTDYAFRLLVALSQAPGKPISTRTLASAADVPYQFASKIMQKLHEEGLVESVMGPFGGFRLVQ,-3.15
13,HMNLWIDNTQVINDWTEGASERSGSIYLTAGVKPIKMQYFDSVLNAKAILRWQGPGINKSVVPSSALTPG,-1.14
14,HMNMEDIADKIGRLYDNLPDDLKLMIKYRDIDDMTYDEIARKANLPIGTVRSRLHRARDILLREI,-1.07
15,HMNMFGIQRRNHLLSLLQEKKSITVQEAAVIFEVAEETIRRDFRTMEGQGLIVRTHGGALLADD,-4.21
16,HMNMMIIHVNGEKYSFQEPITISELILKLELDSRKIAIEYNLEILPRSLFEITSIKNGDKIEIVHFI,-3.43
17,HMNMPYGTVKWFNDAKGFGFIAPEDGSADVFVHFSAINSKGFRSLQEGQRVSYEVTTGPKGAQAAGVTPVT,-0.234
18,HMNMYTVTGRLVDQDGVPQANALVTIDSSSQQTRTSPQGFYLIKVFGTEPSTIKFLVDGYDPQIVNFTP,-0.466
19,HMNNDIDRVFAELTVLSQKKGYLVFDDIEKGTEDLSVNEVDWLTNRLLTSGVEIFDDVPDTIK,0.347
20,HMNNDSQYLATLQRYYAEHRVLPSYARMLPLLGFASKAAVKKVLERLEVVGMLERTEDGDWAPSERFFER,-2.24
21,HMNNGYSINEIAKLMKMTLKVVRRYVASGELKTTKTNNTYSISEEAFNEFKKYIEEGGDAKHAQEVADTFK,-1.09
22,HMNNIGENIKKYRTKQGLSQEDFAKKSGVKYTTLTKIESGVIKKPSVLVMAKIAKALGVNIEELI,-1.64
23,HMNNIINEAQIKQWVEEFYLSVSPRPTRATMIALVHKKIKEETKDGEEGQTVSETLINNFYTALEKEHKRK,0.216
24,HMNNIPFIITDERLNVIQSHLVPREVLDHPDRLRRQIDRFTEENQPKTVNYWWGPEHRHIIFYGKSK,0.377
25,HMNNIYFSPVVEENNKGLRLDKFLAASFPEFSRSQLQRLILEGNVSNDDVVIADNSQKVRVGDSFQVIVPE,-0.018

row,Sequence,soluble fraction (log2)
1,HMNNKSDLLFNHLRQRIATMENGTIFPSVRQLMTEYNVSQSTVSTAIRSLKELGLLEALSRQGMVVRKE,-1.15
2,HMNNLGSKIKELRIAENLTQEKLAEELNVSFQSISRWENGISTPDISLIPAIARFFGVSTDYLFGLQD,-1.82
3,HMNNLPDFIKQLRKENNLTQEYVASEIGVSRPTYEQIEKGKRELTISEAEKLAKIFNIPLENFLQGKKGV,0.122
4,HMNNPLPDLLKYFRKKKHLTQEQVAKQLSVSRASYASYETGRIIPGMQHIMELSRILEHDFLFAYTLAVQ,-2.41
5,HMNNPNFAIQKYVTGSDIKRVRKTLRLTQKKFAELVGVSKATMERWETKEDKITGPVVLLLKILEDHPEY,-1.55
6,HMNNQKATAVKVASGIVNLRSGPATSYETLDTVATGETLSVLAEKDGWFQVSRAGRTGWVAGWVVDVIRE,-0.499
7,HMNNSSIGERLKYQRKIKGYSQEELADRTNVTVRTIQRIEKEEVSPHLNTIKLLAIALDIEVDELVAL,-2.68
8,HMNNSVAYSTFLNDIRTNTLKDVDMTSNSETINVTKKDGTKYQTVMPMYDRDLLADLSKTDATVTGQP,0.562
9,HMNNTIKFSVDIKNSGKRLDIFLSENVTQYTRSYLKRLIENSHVKLNNKILNSPSTKVKFQDQIIINNIE,-2.88
10,HMNNTIKFSVDTTNSGKRLDIFLAENIKQFTRSYLKKIISNNQVKLNNLVANSPSIKVKHSDLILINILE,-2.75
11,HMNNTVLSSVKSINMFLDANGGDAGQAFRIYNNTNPDSNPTESTYIFKVAEDGNTFVKGYLNLNGTTL,-0.267
12,HMNNVRIEHIDTIGTVRLHKKRGVKRVSLRIHQSGEIRVTQPLYLPFSAGVLFAKSHTEWIMKQKQK,0.0763
13,HMNNWRRSLEREVTASLARGDRDIFDGLNRSFEAALITKALEHTGGRRIEAATLLGIGRNTLTRKIQDLGL,-2.11
14,HMNNYEGIVKSVSNSNVYIQVAGRTIGYTISPHTIIMVNGKNVPASELMPGQHVSYTNKGSKLSYININS,-1.17
15,HMNNYFPAYKGSATSIAPALKQMGVNNSYAYRSKIAAVNNITGYRGTPAQNTQMLNLLKQGRLIK,0.349
16,HMNNYNDSVQKIINYIADNLNENLSVRKLADKMPMSVSHFNRVFQKYTGDSPYAYVMAMRIKKAKYL,-0.157
17,HMNPAIYIRKNILNLTQEKLSEYLDVTQPTIHRWEESGVIPAKHQRQIREFASEKGIYWNDSWFFSIPDE,-1.53
18,HMNPDMIAGVLKVPAAAGRLRSALFELGVVDDESYDDDGASRLTVTASQSDLERIVAQAGLVFEDVLVERR,-0.142
19,HMNPEAFIQTLKQILSTYEKNDPIYLQEIKADLVKKFRIEIPINALETYLKENGYSNIYLKR,-0.168
20,HMNPEDLSGVRKAAILLLTMDDEVTKDVMKGLDEEEIEAIGKEITNLKLIPDHVVHRVQEEFMTKVSK,0.107
21,HMNPESRRSELIDAATKLFFSRGYTATSIRDILDAVDDRTASPSVFYYYFESKEAIYQAVLQRYTD,-2
22,HMNPETPAQQAVRKRLIVSVQFYRRLKDTPLKAVWQVAARDTLVNGYNLFLKRNIHAFNDRTLSTPSALS,-0.0445
23,HMNPFPDNTAEVLSQFKNIIVPELNTGQLSKLLRARYLVDTVGINKVEGLPFTAQELEEKIESLINSF,-0.428
24,HMNPGQIIRKLRQDQGMTLAVLAKYANLDPGNLSRIERDDLNISFNLLEKLSLILNVSPIVFFH,-0.119
25,HMNPLSELSFEERRELFLEAAVRLFEEKGYKNTSVEDIAGELGFTKKVFYYYWKNKREIVQEIHDRGMA,-0.594
